Here are results for two molecules from patent US20210324074A1 (US Dept. of Health and Human Services, published 2021).

In assay [1] the target is T1, CD22 ECD-Fc fusion protein (UniProt P20273 20-687, limits assumed).
T1 construct: extracellular domain; also called CD22-Fc; not shown: Fc part
Nature of the assay: SPR, BIAcore X100, CD22 ECD-Fc immobilized, scFv in flow. As to the method:
(§1) FIGS. 13A-13F: (FIG. 13A) BIAcore analysis was used to evaluate association and dissociation curves of various scFvs. […] (FIGS. 13C-13F) Mice were injected with CD22^lo or Nalm6 leukemia on Day 0. […] Bone marrow cells were stained for flow cytometry and analyzed on Fortessa flow machine. Statistics were calculated using unpaired t-test (** p<0.0021).
(§2) Purified CD22 ECD-Fc fusion protein was diluted in 10 mM acetic acid buffer, pH 5.0, immobilized on a CMS biosensor chip for 1400 RU using an amine coupling kit. The running buffer was HBS-EP (10 mM HEPES, pH 7.4, 150 mM NaCl, 3 mM EDTA, 0.05% surfactant P20). The scFvs diluted in running buffer were allowed to flow through the cells at concentrations 0.32, 1.6, 8, 40 and 200 nM. After a 10-minute of dissociation, the chip was regenerated with 10 mM acetic acid, pH 4.0, 0.5 M NaCl. The data were fitted with 1:1 binding model and the dissociation rate constant was estimated with the BIAevaluation software.

The target of assay [2] is T1, CD22 ECD-Fc fusion protein. The experiment in a line: SPR, BIAcore X100; CD22 ECD-Fc amine-coupled to the chip, scFv as analyte (0.32-200 nM per paragraph 213), 1:1 fit. The procedure:
as §1, §2
Background: Surface plasmon resonance follows binding to a sensor surface in real time, without labels.

Assay [3] deals with T1, CD22 ECD-Fc fusion protein. Nature of the assay: SPR, BIAcore X100, CD22 ECD-Fc immobilized, scFv in flow. The association rate appears only as the divisor in the KD calculation, and its unit is not printed. The procedure:
as §1, §2

Assay [4] concerns the target T1, CD22 ECD-Fc fusion protein. The experiment in a line: SPR, BIAcore X100, CD22 ECD-Fc immobilized, scFv in flow, 1:1 model. The fitted value is below the instrument's limit.; fitted kd, below the instrument's limit. As to the method: as §1, §2
Assay [5] addresses T1, CD22 ECD-Fc fusion protein. Nature of the assay: SPR, BIAcore X100; CD22 ECD-Fc amine-coupled to the chip, scFv as analyte (0.32-200 nM per paragraph 213), 1:1 fit; calculated from a kd that legend paragraph 27 says is below the instrument's limit. As to the method:
as §1, §2

In assay [6] the target is T1, CD22 ECD-Fc fusion protein. Nature of the assay: SPR, BIAcore X100; CD22 ECD-Fc amine-coupled to the chip, scFv as analyte (0.32-200 nM per paragraph 213), 1:1 fit; legend paragraph 27 says this kd is below what the instrument can measure (1.0E-5 1/s). The procedure: as §1, §2
Assay [7] deals with T2, CD22 (UniProt P20273 20-687, limits assumed).
T2 construct: also called B cell antigen CD22
Nature of the assay: not stated (overview statement); overview statement, assay not stated.

Bounds are passed on as bounds.

B1: m971-L7 scFv (scFv)
scFv: QVQLQQSGPGMVKPSQTLSLTCAISGDSVSSNSVAWNWIRQSPSRGLEWLGRTYYRSTWYNDYAVSMKSRITINPDTNKNQFSLQLNSVTPEDTAVYYCAREVTGDLEDAFDIWGQGTMVTVSSGGGGSGGGGSGGGGSDIQMIQSPSSLSASVGDRVTITCRASQTIWSYLNWYRQRPGEAPNLLIYAASSLQSGVPSRFSGRGSGTDFTLTISSLQAEDFATYYCQQSYSIPQTFGQGTKLEIK
notes: Soluble scFv run over immobilized CD22 ECD-Fc on a BIAcore X100; also called matured variant L7
What is called Kd is a measure of binding affinity in units of concentration. For orientation: kon means the second-order rate constant of association. The koff is the rate constant with which the complex falls apart. High values mean fast dissociation, low ones slow dissociation. Regarding B1, the Kd is less than 0.018 nM in assay [1] and 0.00206 nM in assay [5]. Also, the “fold higher affinity than original scFv m971” value in assay [1] is greater than 1000 fold. The kon in assay [2] was 563000 M⁻¹ s⁻¹; in assay [3], 560000 M⁻¹ s⁻¹. In addition, the koff in assay [4] is less than 1e-05 s⁻¹; in assay [6] it was 1.16e-06 s⁻¹.

B2: affinity matured human monoclonal antibody m971-L7 (antibody, V domains shown)
VH: QVQLQQSGPGMVKPSQTLSLTCAISGDSVSSNSVAWNWIRQSPSRGLEWLGRTYYRSTWYNDYAVSMKSRITINPDTNKNQFSLQLNSVTPEDTAVYYCAREVTGDLEDAFDIWGQGTMVTVSS
VL: DIQMIQSPSSLSASVGDRVTITCRASQTIWSYLNWYRQRPGEAPNLLIYAASSLQSGVPSRFSGRGSGTDFTLTISSLQAEDFATYYCQQSYSIPQTFGQGTKLEIK
notes: Named as 'antibody' in the overview
Turning to B2, in assay [7], the Kd is less than 0.05 nM.
